T1: PSMα3 (Staphylococcus aureus, UniProt P0C805)
T1 chain: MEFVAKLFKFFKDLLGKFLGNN

B1: Poly(AU) RNA (30-nt oligoA/oligoU) (dsRNA)
RNA 1: AAAAAAAAAAAAAAAAAAAAAAAAAAAAAA
RNA 2: UUUUUUUUUUUUUUUUUUUUUUUUUUUUUU

Legend:
[1] = target: T1, PSMα3; assay: EMSA; apparent Kd, Hill fit with n > 1; 40 nM RNA; weaker than Poly(AU); settings: tags: none (unlabeled)
[2] = target: T1, PSMα3; assay: EMSA; apparent Kd, Hill fit with n > 1; 40 nM RNA; settings: tags: none (unlabeled)

Row | Binder | Kd [1] [µM] | Kd [2] [µM]
1 | AAAAAAAAAAAAAAAAAAAAAAAAAAAAAA (ssRNA) [Poly(A) RNA (30-nt oligoA)] | 94.5 ± 5.4 | –
2 | B1 | – | 61.8 ± 1.6

— article PMC13384500, “RNA selectively modulates activity of virulent amyloid PSMα3 and host-defense LL-37 via phase separation and aggregation dynamics”
